# Data from publication PMC11774035.
# Target: T1, His6-Lrp (Klebsiella oxytoca MIT 09-7231) (UniProt A0A181XPK7)
# T1 sequence: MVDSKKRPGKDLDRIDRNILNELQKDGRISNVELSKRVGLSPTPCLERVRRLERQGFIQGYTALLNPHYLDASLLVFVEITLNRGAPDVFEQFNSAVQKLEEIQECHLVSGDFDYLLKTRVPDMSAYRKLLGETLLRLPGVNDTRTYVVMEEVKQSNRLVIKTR
# Assay: EMSA
# Details: 40 mM HEPES ([…], room temperature 20 min
sequence,measurement,value
TCTCTCACTCGAAATTTAACAGGTTTTTCGTTTGTTTTTTAACAAAAAAGCGATGAGAAAGTGCTATTCCTTGTCTGTTTACTGGACATGAAAGACGATACGGTTTGCACAAATATTGCACGCCAATGAGTGCATTATGTCAATCAAAA (double strand) [aroX-npsA fragment 1],binding,no binding
TCTCTCCTGGAGAATTAGGAACGTTCACACGCATAAAATCTTCTCTTGAAGAAGAAATTAAAGATCTAAAGAAATGCCGCCAGCTTACCGTGAGATGCTTCTAAGAAAACACCGCAAAACAAGCAACATATAAGCAACACAAACATAACT (double strand) [aroX-npsA fragment 3],binding,no binding
